The data set addresses HnRNPA3-Myc (Homo sapiens) (UniProt P51991). In words: EMSA. The following applies: RNA-EMSA: 40 mM Tris pH 7.4, 30 mM KCl, 1 mM MgCl2, 0.1% IGEPAL CA-630, 1 mM DTT, 10 ug/ml BSA, 37 C, 30 min; 15% polyacrylamide gel stated to contain 8 M urea. (In general: A gel shift assay detects complexes by their altered migration in electrophoresis.)

HnRNPA3-Myc (Homo sapiens), sequence (P51991 whole entry): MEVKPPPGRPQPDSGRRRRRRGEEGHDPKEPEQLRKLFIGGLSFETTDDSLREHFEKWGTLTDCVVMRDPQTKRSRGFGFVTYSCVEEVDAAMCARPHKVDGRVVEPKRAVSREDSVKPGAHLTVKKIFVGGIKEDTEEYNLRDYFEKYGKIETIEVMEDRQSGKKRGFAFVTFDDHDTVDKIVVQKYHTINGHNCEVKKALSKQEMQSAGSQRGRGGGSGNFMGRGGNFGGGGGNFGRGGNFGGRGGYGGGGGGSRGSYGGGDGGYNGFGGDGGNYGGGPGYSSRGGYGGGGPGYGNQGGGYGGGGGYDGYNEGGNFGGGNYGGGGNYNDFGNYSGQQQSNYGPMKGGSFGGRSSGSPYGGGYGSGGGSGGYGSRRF

In the case of “GGGAUGUUAAAGAUGAGCGGGUGGCAGCGACAGAGCCAAAAUCAGAGCUGGAACCUGAGGAGAGAGUGUUCAAGAAGGAAGUGUAUCUUCAUACAUCACCACACCUGAAA [huORFchop RNA (105 nt)]”, the binding entry is “binds”.

These data come from publication PMC13049129.
